Series [1] deals with amyloid-beta monomer (AbM) (UniProt P05067 672-711). In words: FRET fluorescence recovery (displacement from Au NRs@PDA); 20 nM AbM; no obvious recovery; QD-aptamer conjugates (in deionized water) with 0.5 mg/mL Au NRs@PDA stock (55 uL to 20 uL), 30 min quench, then 120 min with protein at room temperature; excitation 405 nm; buffer, salt and pH not stated. Conditions: protein: commercial; label: QDs665 (CdSe/CdS/ZnS) via 5' thiol.

The target of series [2] is amyloid-beta oligomer (AbO), from Abeta(1-40) peptide (UniProt P05067 672-711). In words: FRET fluorescence recovery (displacement from Au NRs@PDA); Au NRs@PDA quencher; LOD 50 pM (not a Kd); QD-aptamer conjugates (in deionized water) with 0.5 mg/mL Au NRs@PDA stock (55 uL to 20 uL), 30 min quench, then 120 min with protein at room temperature; excitation 405 nm; buffer, salt and pH not stated. Particulars: protein: commercial; label: QDs625 (CdSe/CdS/ZnS) via 5' thiol.
Chain of amyloid-beta oligomer (AbO), from Abeta(1-40) peptide (P05067 672-711): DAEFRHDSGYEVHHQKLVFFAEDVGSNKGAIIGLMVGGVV

Chain of amyloid-beta monomer (AbM) (P05067 672-711): as above

B1: tau aptamer (ssDNA)
DNA: GCGGAGCGTGGCAGG
modifications: 5'-HS-(CH2)6
For B1, the binding result in series [1] was “no binding”.

B2: AbO aptamer (ssDNA)
DNA: GCCTGTGTTGGGGCGGGTGCG
modifications: 5'-HS-(CH2)6
Regarding B2, the binding result in series [2] is reported as “binds”.

The record behind these values is article PMC9697525, “A High-Quality CdSe/CdS/ZnS Quantum-Dot-Based FRET Aptasensor for the Simultaneous Detection of Two Different Alzheimer’s Disease Core Biomarkers”.
